Measurements from US20220193191A1.

Molecular target: human interleukin-4 receptor alpha chain (IL-4Rα) (human) (UniProt P24394)
Experiment: cell-based or functional assay

- Eotaxin-3 IC50 (nM): inhibition of IL-4 induced eotaxin-3 release, human whole blood in vitro, 8 ng/mL IL-4 for 24 hours, ELISA: 1.5 nM
- MDC IC50 (nM): inhibition of IL-4 induced MDC release, human whole blood in vitro, 8 ng/mL IL-4 for 24 hours, ELISA: 1.1 nM
- TARC IC50 (nM): inhibition of IL-4 induced TARC release, human whole blood in vitro, 8 ng/mL IL-4 for 24 hours, ELISA: 0.8 nM
- pSTAT IC50 (nM): inhibition of IL-4 stimulated STAT6 phosphorylation in CD3+ T cells, human whole blood in vitro, 8 ng/mL IL-4 for 15 minutes, FACS: 0.8 nM
B1: Reference IL-4Rα antibody (Dupilumab) (antibody, INN chains, looked up, V domains shown)
VH: EVQLVESGGGLEQPGGSLRLSCAGSGFTFRDYAMTWVRQAPGKGLEWVSSISGSGGNTYYADSVKGRFTISRDNSKNTLYLQMNSLRAEDTAVYYCAKDRLSITIRPRYYGLDVWGQGTTVTVSS
VL: DIVMTQSPLSLPVTPGEPASISCRSSQSLLYSIGYNYLDWYLQKSGQSPQLLIYLGSNRASGVPDRFSGSGSGTDFTLKISRVEAEDVGFYYCMQALQTPYTFGQGTKLEIKR
